Reference: US20260027190A1, “OVARIAN TUMOR DEUBIQUITINASE OXIDATION AND USES THEREOF” (The University of Vermont and State Agricultural College, priority 2022, published 2026)

Legend:
OTUB1 = assay: OTUB1-SSG: GSH immunoprecipitation followed by OTUB1 Western blot; format: cell-based, mouse; settings: cells treated with recombinant protein
Procedure: OTUB1 was one of the PSSG targets detected in IL1B-stimulated epithelial cells raising the possibility that S-glutathionylation of OTUB1 affects the stability of SLC7A11. To investigate this, immunoprecipitation of GSH followed by Western Blotting of OTUB1 in MTE cells treated with vehicle or IL1B was performed. Dithiothreitol (DTT) was incubated with cell lysates prior to immunoprecipitation as a negative control. OTUB1 levels from whole cell lysates were used as the input control. Increases in OTUB1 S-glutathionylation (OTUB1-SSG) in response to IL1B were observed, with further increases occurring in cells lacking Glrx (FIG. 4G), consistent with the role of GLRX as a deglutathionylating enzyme. Western blots were performed using cells treated with the WT- or C23S-mutant GLRX recombinant protein to examine the presence of glutaredoxin (FIG. 4H) and total PSSG (FIG. 4I) (P-value*<0.05, **<0.01, ***<0.001, ****<0.0001). GAPDH was used as a loading control. Glutathione was evaluated in MTE cells treated with recombinant WT- or C23S-mutant GLRX (FIG. 4J) and glutamate in cell culture supernatant of MTE cells treated with WT or the C23S mutant GLRX was also evaluated (FIG. 4K). […]

OTUB1 and UBCH5A = assay: Interaction between OTUB1 and UBCH5A; format: cell-based; settings: FIG. 14D
Excerpt: OTUB1 was previously shown to interfere with ubiquitination and subsequent proteasomal degradation of SLC7A11. Overexpression of OTUB1 decreased ubiquitinated SLC7A11 (FIG. 17). […] The OTUB1-mediated attenuation of ubiquitination can occur through multiple mechanisms. OTUB1 can act as a canonical deubiquitinase that cleaves K48 chains. Alternatively, OTUB1 also can inhibit the function of E2 conjugating enzymes, including UBCH5 and OTUB1 has been found in a complex with E2 enzymes. Additionally, binding of E2 enzymes to OTUB1 can also promote OTUB1 deubiquitinase activity dependent on the ratio of ubiquitin-charged E2 to uncharged E2 enzyme and levels of free ubiquitin. OTUB1 D88 binds E2 enzymes and suppresses Ub-conjugating activity. Stabilization of SLC7A11 by OTUB1 has been speculated to involve directly binding between OTUB1 and SLC7A11 as well as the inhibition of E2 enzymes. […] These collective observations, along with observed increases in GSH following expression of OTUB1-C91S (FIG. 6C) support a non-canonical role of OTUB1 in augmenting GSH. […] To address this possible scenario, the present disclosure determined whether OTUB1-S-glutathionylation affected the interaction between OTUB1 and UBCH5A which requires the N-terminal region containing C23. […]

B1: GLRX: recombinant wild-type glutaredoxin protein, deglutathionylating enzyme, administered directly to cells (protein, UniProt P35754 2-106, looked up)
Glutaredoxin-1: AQEFVNCKIQPGKVVVFIKPTCPYCRRAQEILSQLPIKQGLLEFVDITATNHTNEIQDYLQQLTGARTVPRVFIGKDCIGGCSDLVSLQQSGELLTRLKQIGALQ
OTUB1
  OTUB1-SSG (OTUB1 S-glutathionylation): decreased
OTUB1 and UBCH5A
  interaction between OTUB1 and UBCH5A: decreases
